# According to patent US20230151373A1, “CHIMERIC POLYPEPTIDE FOR REGULATING IMMUNE CELLS” (STICHTING HET NEDERLANDS KANKER INSTITUUT-ANTONI VAN …, priority 2019, published 2023):
# B1: Zap70 2×SH2: the Zap70 SH2 domains without inhibitory tail; human Zap70 (P43403, 1-264 aa) (protein, UniProt P43403 1-264, looked up, fragment)
# chain: MPDPAAHLPFFYGSISRAEAEEHLKLAGMADGLFLLRQCLRSLGGYVLSLVHDVRFHHFPIERQLNGTYAIAGGKAHCGPAELCEFYSRDPDGLPCNLRKPCNRPSGLEPQPGVFDCLRDAMVRDYVRQTWKLEGEALEQAIISQAPQVEKLIATTAHERMPWYHSSLTREEAERKLYSGAQTDGKFLLRPRKEQGTYALSLIYGKTVYHYLISQDKAGKYCIPEGTKFDTLWQLVEYLKLKADGLIYCLKEACPNSSASNASG
# B2: Zap70-PD1: human Zap70 fragment (1-264 aa), a GGS linker, the human PD1 intracellular domain (192-288 aa) (protein)
# chain: MPDPAAHLPFFYGSISRAEAEEHLKLAGMADGLFLLRQCLRSLGGYVLSLVHDVRFHHFPIERQLNGTYAIAGGKAHCGPAELCEFYSRDPDGLPCNLRKPCNRPSGLEPQPGVFDCLRDAMVRDYVRQTWKLEGEALEQAIISQAPQVEKLIATTAHERMPWYHSSLTREEAERKLYSGAQTDGKFLLRPRKEQGTYALSLIYGKTVYHYLISQDKAGKYCIPEGTKFDTLWQLVEYLKLKADGLIYCLKEACPNSSASNASGGGSCSRAARGTIGARRTGQPLKEDPSAVPVFSVDYGELDFQWREKTPEPPVPCVPEQTEYATIVFPSGMGTSSPARRGSADGPRSAQPLRPEDGHCSWPL
# Tested on: primary human T cells modified with the HLA class I restricted CDK4 TCR
# Assay: Cytokine release and degranulation assay, CDK4 TCR T cells co-cultured with CDK4 peptide loaded T2 cells
# Assay type: cell-based
# Procedure: For use as T cell targets, T2 and CBH 5477 cells were loaded with the indicated concentrations of HLA-A*02:01 restricted mutant CDK4 peptide (ALDPHSGHFV), HLA A*02:01 restricted NY-ESO-1 peptide (SLLMWITQA), or HLA-DR1 restricted CMV peptide (KYQEFFWDANDIYRI) in IMDM for 1 hour at 37° C. Cells were then washed once and used in co-culture experiments.
# T cells and NK cells were pretreated with the indicated concentrations of asunaprevir (MedChemExpress, #HY-14434), grazoprevir (MedChemExpress, #HY-15298), dTAG-13 (Tocris, #6605) or DMSO control in T cell media (RPMI/10% human serum/penicillin-streptomycin, 100 IU/ml IL2 and 5 ng/ml IL15) or NK cell media (RPMI/8% FCS/penicillin-streptomycin, 500 IU/ml IL2), respectively, for 24 hours before co-culture experiments. 100,000 T cells or NK cells and 100,000 of indicated tumor cells were mixed in T cell or NK cell media supplemented with golgi-plug (1:1000 dilution, BD, #51-2301KZ) and anti-LAMP1-APC (1:100 dilution, Biolegend, #328620) in the presence of indicated drugs or DMSO control in 96-well plates and incubated for 5 hours at 37° C.
# After incubation, cells were washed once with PBS and stained with IR dye (Invitrogen, #L34976) at 1:400 dilution for 5 minutes at 4° C. Subsequently, cells were washed once with FACS buffer (PBS plus 0.5% BSA) and stained with anti-CD8-PerCP Cy5.5 (1:20 dilution, BD, #341050), anti-CD4 BV711 (1:50 dilution, Biolegend, #317440), anti-murine constant TCR-PE (in experiments with transduced TCRs, 1:200 dilution, BD, #553172) or cetuximab-PE (in experiments with transduced CAR construct containing truncated human EGFR reporter, 1:200 dilution, R&D Systems, #FAB9577P) for 20 minutes at 4° C. Cells were then washed once with FACS buffer and fixed with BD fixation and permeabilization solution (#51-2090KZ) for 20 minutes at 4° C.
# Following permeabilization, cells were washed twice with BD perm/wash buffer (#51-2091KZ) and stained with anti-IFNγ-BV421 (1:100 dilution, BD, #564791), anti-IL-2-PE-Cy7 (1:100 dilution, BD, #560707) and anti-TNFα-BV650 (1:100 dilution, Biolegend, #502938) diluted in perm/wash buffer for 20 min at 4° C. Cells were then washed twice, resuspended in 100 μl FACS buffer and analyzed directly on a Fortessa Special Order analyzer. Data were analyzed using FlowJo and Prism 7 software.
# [1] = T cells co-cultured with 10 nM peptide loaded T2 tumor cells, relative to vector control
Molecule,"effect of construct expression on T cell cytokine production and degranulation (no drug, T2 cells loaded with CDK4 neoantigen)","reduction in percentage responding cells, IFNγ [1] [fold]","reduction in percentage responding cells, IL-2 [1] [fold]","reduction in percentage responding cells, TNFα [1] [fold]","reduction in percentage responding cells, cell surface LAMP1 [1] [fold]"
B1,modest inhibition of T cell functions,–,–,–,–
B2,–,104,110,81,40
